Laboratory results: the supplement of paper PMC11316812
± gives the standard deviation of the averaged measurements.

Key:
MCF7 = test: percentage of EdU-negative (G0-arrested) nuclei per well, 72 h; higher = more G0 arrest; conditions: reference: sequence is the full UniProt precursor, the tested protein was the secreted form or ectodomain
hTERT-HMEC = test: as above; conditions: reference: sequence is the full UniProt precursor, the tested protein was the secreted form or ectodomain
[1] = protein concentration 0.0225 µM
[2] = protein concentration 0.0257143 µM
[3] = protein concentration 0.257143 µM
[4] = protein concentration 0.01575 µM
[5] = protein concentration 0.1575 µM
[6] = protein concentration 0.02103 µM
[7] = protein concentration 0.2103 µM
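Also: secreted proteins added to cultured cells, EdU pulse at the end, nuclei found by Hoechst imaging, EdU status from nuclear versus surrounding ring intensity ratio, PBS as neutral control.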

Sequence	percentage of EdU-negative (MCF7; [1])	percentage of EdU-negative (MCF7; protein concentration 0.225 µM)	percentage of EdU-negative (hTERT-HMEC; [1])	percentage of EdU-negative (hTERT-HMEC; protein concentration 0.225 µM)	also measured
MRTADREARPGLPSLLLLLLAGAGLSAASPPAAPRFNVSLDSVPELRWLPVLRHYDLDLVRAAMAQVIGDRVPKWVHVLIGKVVLELERFLPQPFTGEIRGMCDFMNLSLADCLLVNLAYESSVFCTSIVAQDSRGHIYHGRNLDYPFGNVLRKLTVDVQFLKNGQIAFTGTTFIGYVGLWTGQSPHKFTVSGDERDKGWWWENAIAALFRRHIPVSWLIRATLSESENFEAAVGKLAKTPLIADVYYIVGGTSPREGVVITRNRDGPADIWPLDPLNGAWFRVETNYDHWKPAPKEDDRRTSAIKALNATGQANLSLEALFQILSVVPVYNNFTIYTTVMSAGSPDKYMTRIRNPSRK	25.7 ± 0.36%	29.2 ± 3.5%	5.28 ± 0.13%	7.812 ± 0.044%	
MRTIAILAAILLVALQAQAESLQERADEATTQKQSGEDNQDLAISFAGNGLSALRTSGSQARATCYCRTGRCATRESLSGVCEISGRLYRLCCR	27.1 ± 0.85%	25.5 ± 1.3%	4.85 ± 0.56%	5.716 ± 0.019%	
MRTLTILTAVLLVALQAKAEPLQAEDDPLQAKAYEADAQEQRGANDQDFAVSFAEDASSSLRALGSTRAFTCHCRRSCYSTEYSYGTCTVMGINHRFCCL	26.4 ± 0.96%	26.4 ± 0.12%	4.63 ± 0.29%	5.921 ± 0.038%	
MRTQSLLLLGALLAVGSQLPAVFGRKKGEKSGGCPPDDGPCLLSVPDQCVEDSQCPLTRKCCYRACFRQCVPRVSVKLGSCPEDQLRCLSPMNHLCHKDSDCSGKKRCCHSACGRDCRDPARGTAPGCPGQANSDLGSVALHLSWGPTERVHDGRPGALPAGQHYLYQRWFQPSDNHWPADTSLQPIHPWFLLLGVKVHSLSSEEGLCITPVLCTTAIRASHPS [Q8TCV5]					percentage of EdU-negative (MCF7; [2]): 23.5 ± 0.78%; percentage of EdU-negative (MCF7; [3]): 28.7 ± 0.3%; percentage of EdU-negative (hTERT-HMEC; [2]): 5.766 ± 0.04%; percentage of EdU-negative (hTERT-HMEC; [3]): 5.25 ± 1.3%
MRTVVLTMKASVIEMFLVLLVTGVHSNKETAKKIKRPKFTVPQINCDVKAGKIIDPEFIVKCPAGCQDPKYHVYGTDVYASYSSVCGAAVHSGVLDNSGGKILVRKVAGQSGYKGSYSNGVQSLSLPRWRESFIVLESKPKKGVTYPSALTYSSSKSPAAQAGETTKAYQRPPIPGTTAQPVTLMQLLAVTVAVATPTTLPRPSPSAASTTSIPRPQSVGHRSQEMDLWSTATYTSSQNRPRADPGIQRQDPSGAAFQKPVGADVSLGLVPKEELSTQSLEPVSLGDPNCKIDLSFLIDGSTSIGKRRFRIQKQLLADVAQALDIGPAGPLMGVVQYGDNPATHFNLKTHTNSRDLKTAIEKITQRGGLSNVGRAISFVTKNFFSKANGNRSGAPNVVVVMVDGWPTDKVEEASRLARESGINIFFITIEGAAENEKQYVVEPNFANKAVCRTNGFYSLHVQSWFGLHKTLQPLVKRVCDTDRLACSKTCLNSADIGFVIDGSSSVGTGNFRTVLQFVTNLTKEFEISDTDTRIGAVQYTYEQRLEFGFDKYSSKPDILNAIKRVGYWSGGTSTGAAINFALEQLFKKSKPNKRKLMILITDGRSYDDVRIPAMAAHLKGVITYAIGVAWAAQEELEVIATHPARDHSFFVDEFDNLHQYVPRIIQNICTEFNSQPRN [Q6UXI7]					percentage of EdU-negative (MCF7; [4]): 27 ± 0.45%; percentage of EdU-negative (MCF7; [5]): 23.4 ± 0.87%; percentage of EdU-negative (hTERT-HMEC; [4]): 5.15 ± 0.69%; percentage of EdU-negative (hTERT-HMEC; [5]): 6.71 ± 1.1%
MRVAGAAKLVVAVAVFLLTFYVISQVFEIKMDASLGNLFARSALDTAARSTKPPRYKCGISKACPEKHFAFKMASGAANVVGPKICLEDNVLMSGVKNNVGRGINVALANGKTGEVLDTKYFDMWGGDVAPFIEFLKAIQDGTIVLMGTYDDGATKLNDEARRLIADLGSTSITNLGFRDNWVFCGGKGIKTKSPFEQHIKNNKDTNKYEGWPEVVEMEGCIPQKQD					percentage of EdU-negative (MCF7; [6]): 25.3 ± 0.58%; percentage of EdU-negative (MCF7; [7]): 24.9 ± 1.8%; percentage of EdU-negative (hTERT-HMEC; [6]): 4.78 ± 1.5%; percentage of EdU-negative (hTERT-HMEC; [7]): 5.17 ± 1.7%
